Assay results taken from patent US20110318356A1 (Novo Nordisk, published 2011).
Each block holds one binder with its values, some of them ahead of it.

Key:
[1] = target: T1, recombinant full length human tissue factor pathway inhibitor (TFPI) (human, UniProt P10646 29-304); test: SPR (Biacore), recombinant human TFPI over the mAb
T1 construct: also called TFPI1; human TFPI
Protocol: Binding interaction analysis was obtained by Surface Plasmon Resonance in a Biacore 3000. Capture of the relevant monoclonal antibody at a fixed concentration was obtained with immobilised mouse anti-IgG. Different concentrations of TFPI were tested.
(§1) These were followed by a direct binding kinetic procedure on selected mAb constructs, with the monoclonal antibody covalently coupled via free amine groups to the carboxymethylated dextrane membrane (CM5) on the sensor chip surface.

[2] = target: T1, recombinant full length human tissue …; test: SPR (Biacore)
Description: The affinity analyses were done using SRP as described below.
as §1

[3] = target: T1, recombinant full length human tissue …; test: SPR (Biacore), recombinant human TFPI
[4] = target: T1, recombinant full length human tissue …; test: SPR (Biacore), TFPI
[5] = target: T1, recombinant full length human tissue …; test: SPR (Biacore T-100), mAb immobilised on CM5 chip, full length human TFPI, 1:1 model
Protocol: (§2) Binding interaction analysis was obtained by Surface Plasmon Resonance in a Biacore T-100 instrument. Capture of the relevant monoclonal antibody at a fixed concentration was obtained by direct immobilization to a CM5 chip of the mAb to a level of 500-1000 RU in 10 mM sodium acetate pH 4.5-5.0. […] Running and dilution buffer: 10 mM HEPES, 150 mM, 0.005% p20, pH 7.4. Regeneration was obtained by 10 mM Glycine, pH 1.7. Determination of kinetic and binding constants (kₒₙ, koff, KD) was obtained assuming a 1:1 interaction of TFPI and the antibody of interest using the Biacore T100 evaluation software. […] Regeneration of the chip was obtained by 10 mM Glycine, pH 1.7.

[6] = target: T1, recombinant full length human tissue …; test: cell-based or functional assay
[7] = target: T1, recombinant full length human tissue …; test: SPR (Biacore), recombinant human TFPI; remark: listed apart in the source
[8] = target: T1, recombinant full length human tissue …; test: cell-based or functional assay; remark: listed apart in the source
[9] = target: T2, human TFPI short form (1-161 amino acid residues) (human, UniProt P10646 29-189); test: SPR (Biacore T-100), mAb immobilised, TFPI161 (K1 and K2 domains)
T2 construct: also called TFPI161; TFPI (1-161)
Protocol: as §2

[10] = target: T1, recombinant full length human tissue …; test: SPR (Biacore T-100), mAb immobilised, full length human TFPI
Protocol: as §2

B1: HzTFPI4F36-CDRgrafted (initial CDR grafted version of humanized TFPI4F36) (antibody, human IgG4 S228P, kappa)
heavy: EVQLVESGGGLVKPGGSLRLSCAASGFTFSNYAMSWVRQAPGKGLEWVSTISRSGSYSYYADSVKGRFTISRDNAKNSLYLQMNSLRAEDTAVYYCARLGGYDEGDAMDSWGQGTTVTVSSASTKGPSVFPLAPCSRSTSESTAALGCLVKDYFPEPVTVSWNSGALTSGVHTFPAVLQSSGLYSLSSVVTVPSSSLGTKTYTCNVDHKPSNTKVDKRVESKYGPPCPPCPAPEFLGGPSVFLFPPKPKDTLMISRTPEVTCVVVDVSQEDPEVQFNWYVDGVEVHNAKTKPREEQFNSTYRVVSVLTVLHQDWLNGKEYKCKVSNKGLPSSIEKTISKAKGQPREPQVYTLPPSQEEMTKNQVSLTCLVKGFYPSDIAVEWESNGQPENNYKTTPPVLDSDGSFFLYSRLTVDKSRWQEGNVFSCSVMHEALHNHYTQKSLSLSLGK
light: DIVMTQTPLSLSVTPGQPASISCKSSQSLLESDGKTYLNWYLQKPGQSPQLLIYLVSILDSGVPDRFSGSGSGTDFTLKISRVEAEDVGVYYCLQATHFPQTFGGGTKVEIKRTVAAPSVFIFPPSDEQLKSGTASVVCLLNNFYPREAKVQWKVDNALQSGNSQESVTEQDSKDSTYSLSSTLTLSKADYEKHKVYACEVTHQGLSSPVTKSFNRGEC
notes: human kappa/IgG4(S241P); also called hz4F36CDRgraft
Kd [1]: 2.06 nM
kon [1]: 1.07e+06 M⁻¹ s⁻¹
fold lower affinity than the original mouse TFPI4F36 antibody [2]: ≥ 100 fold

B2: HzTFPI4F36 LC-S63T (antibody, human IgG4 S228P, kappa, name in Kabat numbering, V domains shown)
VH: EVQLVESGGGLVKPGGSLRLSCAASGFTFSNYAMSWVRQAPGKGLEWVSTISRSGSYSYYADSVKGRFTISRDNAKNSLYLQMNSLRAEDTAVYYCARLGGYDEGDAMDSWGQGTTVTVSS
VL: DIVMTQTPLSLSVTPGQPASISCKSSQSLLESDGKTYLNWYLQKPGQSPQLLIYLVSILDSGVPDRFTGSGSGTDFTLKISRVEAEDVGVYYCLQATHFPQTFGGGTKVEIKR
notes: Mutated CDR-grafted light chain with wild type CDR-grafted heavy chain; human kappa/IgG4(S241P)
Kd [3]: 7.8 nM

B4: HzTFPI4F36 (mAbTFPI2021) humanized monoclonal antibody (antibody, human IgG4 S228P, kappa, V domains shown)
VH: EVQLVESGGGLVKPGGSLRLSCAASGFTFSNYAMSWVRQTPEKRLEWVATISRSGSYSYFPDSVQGRFTISRDNAKNSLYLQMNSLRAEDTAVYYCARLGGYDEGDAMDSWGQGTTVTVSS
VL: DIVMTQTPLSLSVTPGQPASISCKSSQSLLESDGKTYLNWYLQKPGQSPQLLIYLVSILDSGVPDRFSGSGSGTDFTLKISRVEAEDVGVYYCLQATHFPQTFGGGTKVEIKR
notes: human kappa/IgG4(S241P); also called mAb2021; mAbTFPI4F36
Kd [4]: 0.026 nM
Kd [5]: 0.015 nM
koff [5]: 3.58e-05 s⁻¹
kon [5]: 2.39e+06 M⁻¹ s⁻¹
IC50, neutralization of TFPI inhibition of FVIIa/TF/FX [6]: 3.8 nM
Kd [7]: 0.026 nM
IC50, neutralization of TFPI inhibition of FXa [8]: 12.6 nM
Kd [2]: ~0.025 nM
Kd [9]: 0.0455 nM
Kd [10]: 0.015 nM

B7: HzTFPI4F36 HC-G42E, G44R, CDR2 (antibody, human IgG4 S228P, kappa, name in Kabat numbering, V domains shown)
VH: EVQLVESGGGLVKPGGSLRLSCAASGFTFSNYAMSWVRQAPEKRLEWVSTISRSGSYSYFPDSVQGRFTISRDNAKNSLYLQMNSLRAEDTAVYYCARLGGYDEGDAMDSWGQGTTVTVSS
VL: DIVMTQTPLSLSVTPGQPASISCKSSQSLLESDGKTYLNWYLQKPGQSPQLLIYLVSILDSGVPDRFSGSGSGTDFTLKISRVEAEDVGVYYCLQATHFPQTFGGGTKVEIKR
notes: Mutated CDR-grafted heavy chain with wild type CDR-grafted light chain; Kabat numbering; also called HzTFPI4F36 G42E, G44R, Y59F, A60P, K64Q
Kd [4]: 0.039 nM
Kd [7]: 0.039 nM

B9: MuTFPI4F36 (TFPI-4F36A1B2) murine monoclonal antibody (antibody, mouse IgG1, kappa, V domains shown)
VH: EVELVESGGGLVKPGGSLKLSCAASGFTFSNYAMSWVRQTPEKRLEWVATISRSGSYSYFPDSVQGRFTISRDNAKNTLYLQMSSLRSEDTAMYYCTRLGGYDEGDAMDSWGQGTSVTVSS
VL: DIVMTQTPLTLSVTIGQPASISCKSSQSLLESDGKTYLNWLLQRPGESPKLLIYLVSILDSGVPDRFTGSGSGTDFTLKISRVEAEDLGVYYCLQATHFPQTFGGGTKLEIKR
notes: murine kappa / IgG1; also called anti-TFPI4F36A1B2; Murine TFPI4F36
Kd [1]: 0.0282 nM
kon [1]: 4.7e+06 M⁻¹ s⁻¹
Kd [2]: ~0.03 nM

Other lines, results leading:

Kd [3]: > 0.03 nM
B3: HzTFPI4F36 LC-Y36L (antibody, human IgG4 S228P, kappa, name in Kabat numbering, V domains shown)
VH: EVQLVESGGGLVKPGGSLRLSCAASGFTFSNYAMSWVRQAPGKGLEWVSTISRSGSYSYYADSVKGRFTISRDNAKNSLYLQMNSLRAEDTAVYYCARLGGYDEGDAMDSWGQGTTVTVSS
VL: DIVMTQTPLSLSVTPGQPASISCKSSQSLLESDGKTYLNWLLQKPGQSPQLLIYLVSILDSGVPDRFSGSGSGTDFTLKISRVEAEDVGVYYCLQATHFPQTFGGGTKVEIKR
notes: Mutated CDR-grafted light chain with wild type CDR-grafted heavy chain; Kabat numbering

Kd [3]: 17 nM
B5: HzTFPI4F36 LC-P15I (antibody, human IgG4 S228P, kappa, name in Kabat numbering)
heavy: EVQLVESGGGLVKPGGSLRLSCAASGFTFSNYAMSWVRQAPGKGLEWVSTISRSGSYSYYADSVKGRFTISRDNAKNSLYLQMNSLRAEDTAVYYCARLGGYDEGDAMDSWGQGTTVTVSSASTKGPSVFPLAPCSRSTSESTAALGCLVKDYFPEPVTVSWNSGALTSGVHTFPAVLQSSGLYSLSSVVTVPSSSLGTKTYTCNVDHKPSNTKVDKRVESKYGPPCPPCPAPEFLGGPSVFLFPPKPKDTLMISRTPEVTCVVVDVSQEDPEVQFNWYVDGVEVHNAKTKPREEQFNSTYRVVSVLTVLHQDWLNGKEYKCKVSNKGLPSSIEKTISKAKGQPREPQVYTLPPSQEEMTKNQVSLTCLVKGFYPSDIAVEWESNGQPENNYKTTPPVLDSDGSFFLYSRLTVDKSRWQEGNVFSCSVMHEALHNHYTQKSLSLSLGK
light: DIVMTQTPLSLSVTIGQPASISCKSSQSLLESDGKTYLNWYLQKPGQSPQLLIYLVSILDSGVPDRFSGSGSGTDFTLKISRVEAEDVGVYYCLQATHFPQTFGGGTKVEIKRTVAAPSVFIFPPSDEQLKSGTASVVCLLNNFYPREAKVQWKVDNALQSGNSQESVTEQDSKDSTYSLSSTLTLSKADYEKHKVYACEVTHQGLSSPVTKSFNRGEC
notes: as for B3

Kd [3]: 0.64 nM
B6: HzTFPI4F36 LC-P15I, FR2 (antibody, human IgG4 S228P, kappa, name in Kabat numbering)
heavy: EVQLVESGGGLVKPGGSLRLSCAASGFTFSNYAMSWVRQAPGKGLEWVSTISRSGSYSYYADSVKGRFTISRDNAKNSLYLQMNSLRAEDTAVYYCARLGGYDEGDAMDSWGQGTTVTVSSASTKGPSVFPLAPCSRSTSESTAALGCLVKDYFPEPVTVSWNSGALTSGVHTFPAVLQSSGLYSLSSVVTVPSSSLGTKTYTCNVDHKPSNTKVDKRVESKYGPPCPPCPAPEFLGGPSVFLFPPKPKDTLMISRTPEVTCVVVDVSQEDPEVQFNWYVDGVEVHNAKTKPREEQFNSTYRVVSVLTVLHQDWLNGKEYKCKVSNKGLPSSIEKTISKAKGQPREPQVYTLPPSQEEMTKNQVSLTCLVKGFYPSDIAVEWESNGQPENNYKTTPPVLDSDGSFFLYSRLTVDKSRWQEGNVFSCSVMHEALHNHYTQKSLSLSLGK
light: DIVMTQTPLSLSVTIGQPASISCKSSQSLLESDGKTYLNWLLQRPGESPKLLIYLVSILDSGVPDRFSGSGSGTDFTLKISRVEAEDVGVYYCLQATHFPQTFGGGTKVEIKRTVAAPSVFIFPPSDEQLKSGTASVVCLLNNFYPREAKVQWKVDNALQSGNSQESVTEQDSKDSTYSLSSTLTLSKADYEKHKVYACEVTHQGLSSPVTKSFNRGEC
notes: as for B3

Kd [4]: 0.093 nM
Kd [7]: 0.093 nM
B8: HzTFPI4F36 HC-G42E, G44R, A60P, K64Q (antibody, human IgG4 S228P, kappa, name in Kabat numbering, V domains shown)
VH: EVQLVESGGGLVKPGGSLRLSCAASGFTFSNYAMSWVRQAPEKRLEWVSTISRSGSYSYYPDSVQGRFTISRDNAKNSLYLQMNSLRAEDTAVYYCARLGGYDEGDAMDSWGQGTTVTVSS
VL: DIVMTQTPLSLSVTPGQPASISCKSSQSLLESDGKTYLNWYLQKPGQSPQLLIYLVSILDSGVPDRFSGSGSGTDFTLKISRVEAEDVGVYYCLQATHFPQTFGGGTKVEIKR
notes: Mutated CDR-grafted heavy chain with wild type CDR-grafted light chain; Kabat numbering; also called HzTFPI4F36 G42E, G44R, A60P, K64Q
